This is an account of results in US20180094055A1 (Amgen, published 2018).

In test [1] the target is T1, human PAC1 (form used for the Kd determination not stated) (human, UniProt P41586 21-468, limits assumed).
T1 construct: also called hPAC1
T1 sequence (looked up): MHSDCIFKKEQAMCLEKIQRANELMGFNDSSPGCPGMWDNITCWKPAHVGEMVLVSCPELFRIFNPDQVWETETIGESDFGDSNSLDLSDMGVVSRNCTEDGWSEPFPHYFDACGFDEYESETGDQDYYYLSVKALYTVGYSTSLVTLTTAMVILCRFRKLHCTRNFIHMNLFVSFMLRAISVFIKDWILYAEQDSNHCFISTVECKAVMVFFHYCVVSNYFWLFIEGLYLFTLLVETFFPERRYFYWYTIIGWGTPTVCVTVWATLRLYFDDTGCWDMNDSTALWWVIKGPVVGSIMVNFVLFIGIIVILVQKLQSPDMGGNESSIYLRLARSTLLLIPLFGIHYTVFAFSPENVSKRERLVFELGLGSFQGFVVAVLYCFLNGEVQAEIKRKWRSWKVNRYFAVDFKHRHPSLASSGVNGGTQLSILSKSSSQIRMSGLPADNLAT
As to the kind of experiment: method not described (Table 8, 'Kd (nM)').

Test [2] addresses T2, human pituitary adenylate cyclase-activating polypeptide type I receptor, endogenously expressed on SH-SY-5Y … (human, UniProt P41586 21-468).
T2 sequence (looked up): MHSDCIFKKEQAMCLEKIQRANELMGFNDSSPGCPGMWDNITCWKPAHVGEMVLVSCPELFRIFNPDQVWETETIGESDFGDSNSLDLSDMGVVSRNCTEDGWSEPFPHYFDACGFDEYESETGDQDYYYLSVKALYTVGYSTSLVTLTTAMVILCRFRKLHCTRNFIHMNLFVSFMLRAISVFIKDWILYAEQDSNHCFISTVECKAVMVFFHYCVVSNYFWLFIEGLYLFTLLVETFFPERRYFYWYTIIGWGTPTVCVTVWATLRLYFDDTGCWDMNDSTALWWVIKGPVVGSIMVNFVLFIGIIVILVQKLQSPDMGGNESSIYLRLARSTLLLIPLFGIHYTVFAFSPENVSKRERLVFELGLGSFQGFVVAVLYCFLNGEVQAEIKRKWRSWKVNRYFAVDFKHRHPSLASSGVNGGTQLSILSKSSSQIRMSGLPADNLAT
Description: cell-based or functional assay.

B1: Anti-hPAC1 antibody W (antibody, human IgG2, kappa, V domains shown)
VH: QVQLQESGPGLVKPSQTLSLTCTVSGGSISSGGYYWSWIRQHPGKGLEWIGYIYYSGNTYYNPSLKSRVTISGDTSKNQFSLKLRSVTAADTAVYYCTRGGAARGMDVWGQGTTVTVSS
VL: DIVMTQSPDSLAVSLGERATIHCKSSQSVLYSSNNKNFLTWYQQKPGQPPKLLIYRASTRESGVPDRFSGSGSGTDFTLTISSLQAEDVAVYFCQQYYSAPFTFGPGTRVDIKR
notes: also called Ab ID W
In turn, B1 had a Kd in test [1] of 0.189 nM. In test [2], the “Antagonist IC50 (nM), PAC1 mediated cAMP assay (LANCE), PACAP-38 1 nM stimulation” value is 28 nM.

B2: Anti-hPAC1 antibody L (antibody, human IgG2, kappa, V domains shown)
VH: QVQLVESGGGVVQPGRSLRLSCAASGFTFSRYAMHWVRQASGKGLEWVAVISYDGSNKYYADSVKGRFTISRDNSKNTLYLLMSSLRAEDTAVFYCARGYDILTGYPDYWGQGTLVTVSS
VL: DIQLTQSPSFLSASVGDRVTITCRASQSIGRSLHWYQQKPGKAPKLLFKYASQSLSGVPSRFSGSGSGTEFTLTISSLQPEDFATYYCHQSSRLPFTFGPGTKVDIKR
notes: also called Ab ID L
Consider B2, for which the Kd in test [1] was 0.024 nM. Also, the “Antagonist IC50 (nM), PAC1 mediated cAMP assay (LANCE), PACAP-38 1 nM stimulation” value in test [2] came to 4 nM.

For orientation: Kd means a measure of binding affinity in units of concentration.
